Assay [1] concerns the target T1, CidB (CidB^wPip, wPa_0283), co-expressed with His6-CidA from the full operon in E. coli (Wolbachia pipientis, wPip strain).
T1 construct: also called toxin
T1 chain: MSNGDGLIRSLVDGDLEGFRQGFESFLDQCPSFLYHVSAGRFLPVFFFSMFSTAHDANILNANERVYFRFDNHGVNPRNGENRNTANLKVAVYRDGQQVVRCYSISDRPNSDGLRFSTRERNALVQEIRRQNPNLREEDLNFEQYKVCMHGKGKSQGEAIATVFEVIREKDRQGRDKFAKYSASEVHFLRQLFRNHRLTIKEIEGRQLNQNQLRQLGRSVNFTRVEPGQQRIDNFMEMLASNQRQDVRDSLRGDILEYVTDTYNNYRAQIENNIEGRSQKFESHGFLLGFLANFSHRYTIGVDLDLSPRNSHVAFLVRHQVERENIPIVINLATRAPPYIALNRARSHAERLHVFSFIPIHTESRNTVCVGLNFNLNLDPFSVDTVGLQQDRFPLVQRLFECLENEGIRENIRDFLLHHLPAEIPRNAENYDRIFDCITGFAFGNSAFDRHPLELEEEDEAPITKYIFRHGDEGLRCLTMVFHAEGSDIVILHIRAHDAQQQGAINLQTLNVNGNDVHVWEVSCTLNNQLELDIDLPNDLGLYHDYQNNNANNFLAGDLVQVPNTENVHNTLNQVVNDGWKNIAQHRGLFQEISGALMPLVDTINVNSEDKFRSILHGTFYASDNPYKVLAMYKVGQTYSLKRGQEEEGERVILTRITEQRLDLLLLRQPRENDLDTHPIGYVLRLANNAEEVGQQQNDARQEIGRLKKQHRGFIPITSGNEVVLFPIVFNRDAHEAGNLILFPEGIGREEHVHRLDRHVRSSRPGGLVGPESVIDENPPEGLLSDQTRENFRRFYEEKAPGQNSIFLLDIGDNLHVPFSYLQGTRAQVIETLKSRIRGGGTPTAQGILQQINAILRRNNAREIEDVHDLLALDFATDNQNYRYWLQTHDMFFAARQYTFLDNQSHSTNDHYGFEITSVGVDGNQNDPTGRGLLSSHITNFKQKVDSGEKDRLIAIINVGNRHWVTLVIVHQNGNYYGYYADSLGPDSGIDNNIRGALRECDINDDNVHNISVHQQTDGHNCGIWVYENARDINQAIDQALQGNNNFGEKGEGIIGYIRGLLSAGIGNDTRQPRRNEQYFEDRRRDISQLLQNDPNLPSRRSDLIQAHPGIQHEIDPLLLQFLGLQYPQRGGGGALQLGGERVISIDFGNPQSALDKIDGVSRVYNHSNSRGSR
Nature of the assay: summary of the pulldown experiments of Example 2.

The target of assay [2] is T2, CinB (CinB^wPip, wPa_0295), co-expressed with His6-CinA from the full operon in E. coli (Wolbachia pipientis, wPip strain).
T2 construct: also called putative DUF1703 nuclease
T2 chain: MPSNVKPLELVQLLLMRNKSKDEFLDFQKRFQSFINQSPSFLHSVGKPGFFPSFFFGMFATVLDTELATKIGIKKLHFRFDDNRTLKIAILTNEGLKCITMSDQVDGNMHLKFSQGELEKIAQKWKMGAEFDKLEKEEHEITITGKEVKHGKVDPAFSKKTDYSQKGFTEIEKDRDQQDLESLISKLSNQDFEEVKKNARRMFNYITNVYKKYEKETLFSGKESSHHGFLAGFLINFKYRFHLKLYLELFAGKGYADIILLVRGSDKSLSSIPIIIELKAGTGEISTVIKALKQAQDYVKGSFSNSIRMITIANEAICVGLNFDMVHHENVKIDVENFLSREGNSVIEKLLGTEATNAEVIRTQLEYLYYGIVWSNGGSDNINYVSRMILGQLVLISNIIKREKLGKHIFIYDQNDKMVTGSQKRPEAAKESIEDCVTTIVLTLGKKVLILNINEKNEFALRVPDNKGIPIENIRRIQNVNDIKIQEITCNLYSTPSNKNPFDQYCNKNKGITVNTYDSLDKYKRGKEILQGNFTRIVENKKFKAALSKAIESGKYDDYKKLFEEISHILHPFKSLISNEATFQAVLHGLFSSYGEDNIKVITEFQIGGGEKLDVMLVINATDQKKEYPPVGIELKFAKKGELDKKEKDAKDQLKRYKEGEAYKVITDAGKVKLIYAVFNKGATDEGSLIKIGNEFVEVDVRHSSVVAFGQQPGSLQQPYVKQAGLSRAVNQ
The assay can be described thus: summary of the pulldown experiments of Example 2.

B1: His6-CidA (CidA^wPip, wPa_0282, N-terminally His6-tagged) (other)
chain: MPTQKELRDTMSKKLQEAIKHPDPAVVAGRKSAIKRWVGVLQDNFMEHIKYFKGDKLKFLHNVFQDEGCWSGVRLDNAALGQRFTEEKIGGIDNPLRKYEMACSYCVVDKIHPLFQKRFESYRNKFPPGAFDGKTETEFGKYVRNSLLDSIKRKGPVFDFWIDRESGELKKYDAVEGFDSAVKFKWSEGVEYFYNHLKEEDKEKKLTEAILALSRVQSVEKDAPILDFCVNKIVDKDTLLQKLSQKDKGVYSLFAELIESCFFDTVHDLVQCWCYKEVSAGGDHSEKIFSQRDYELFLSSLSDTMLKNPELSVQARSLIMEFWECGSLYQYRKAAVNTSNYTVPTSGVFAELIVNWRREDIYKTDEEKEIEKKEILDMMSFAKDCFPEKFELFKKLIIRDLRLCGREGKRVNVDYGLFAEELFSELEKTILPPGPVGDGPCSNLRSRSKAHGSKKTTLPVDDSPQSELGTPSVSGVSSYKKKSVFTLSGNK
notes: also called His6-tagged CidA; antidote
Turning to B1, the binding result in assay [1] is listed as “binds”.

B2: His6-CinA (CinA^wPip, wPa_0294, His6-tagged) (other)
chain: MESGLDHNYNKILDILKGAIKGDDNQVKARKHLRVERWLRAYIQLIEDFDEEKLIFFSDIFSDNSCWDGIKLKNKAVGERLTEEKNKNGKENPLDLADRYYLACKYCLEDKIPGLFEQVFMRFKRSAFEEDGSDDDLRRELLENIEETSPIEAFWSFLIDKQIGKLNEYKSVEGLQKSIQINSNKNWEEGIEFFYNKLHNDSSISSQDKDDLLIEAALSAVKGYKEVDTIEFCLSKMDDEQKKKLLDRDYKENTYYAVLNVLVGQYYFDSFMELSRLCSQIECERYTTFLSSLSDQVLKNPDLSEETKKCMMNVWERIIKLKTQDRGEQSISSIFVDYSVTYTIANLIVDPSRQGVSKEEILGKILKHVKEMSGEEMIKVKDSVLSKIQLFHGGKKLQLGEQVFSKLAQEASKESILREAGDTLPQSSLSTTDTPYNIKSLSHSK
In the case of B2, the binding result in assay [2] is reported as “binds”.
